These results are taken from article PMC4835082.

In assay [1] the target is factor X (UniProt P00742).
In assay [2] the target is factor Xa (UniProt P00742).

Chain of daboxin P (C0HK16 whole entry): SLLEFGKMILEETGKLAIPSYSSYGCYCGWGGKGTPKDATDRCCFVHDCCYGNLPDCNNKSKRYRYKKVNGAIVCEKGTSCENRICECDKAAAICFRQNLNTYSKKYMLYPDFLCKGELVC

Regarding daboxin P (enzyme), in assay [1], the IC50 of inhibition of FXa generation by the extrinsic tenase complex (ETC), in the presence of phospholipids, chromogenic substrate S-2222 worked out at 0.43 nM; the IC50 of inhibition of FXa generation by the intrinsic tenase complex (ITC), in the presence of phospholipids, chromogenic substrate S-2222 was 39.2 nM; the residual activity of ETC (with phospholipids) upon treatment with 3 uM of daboxin P came out at 9.05%; the residual activity of ETC reconstituted without phospholipid, treated with daboxin P turned out to be 25%. Besides, in assay [1], the residual activity of ITC (with phospholipids) upon treatment with 3 uM of daboxin P turned out to be 2.8% and the residual activity of ITC reconstituted without phospholipid, treated with daboxin P stood at 20.1%. The same substance displayed a residual activity of the prothrombinase complex (thrombin formation, S-2238) when daboxin P was pre-incubated with FXa followed by addition of FVa in assay [2] of 11.3%.
With alkylated daboxin P (enzyme), in assay [1], the residual activity of ETC treated with alkylated daboxin P (3 uM) is 23% and the residual activity of ITC treated with alkylated daboxin P (3 uM) was 19%.
